This is an account of results in publication PMC6451337, “The Toxoplasma gondii dense granule protein TgGRA3 interacts with host Golgi and dysregulates anterograde transport” (Biology Open, 2019).

Data set [1] concerns the molecule itself. Put plainly: SEC; GRA3_(43-161) cleaved from GST with PreScission protease, Superdex 200 Increase 3.2/300 column, AKTA Micro FPLC; protein standards 12,000-200,000 for the standard curve.
Data set [2] concerns the molecule itself. Put plainly: native gel or EMSA; proteins cleaved from glutathione-Sepharose beads with PreScission protease in 25 mM Tris pH 8, 1 mM DTT, 0.5 mM PMSF, 1 mM EDTA; 10% Tris-glycine native gel, unheated against heated; Coomassie Blue stain and Western blot. In general terms: Mobility shift assays separate free from complexed probe on a gel.

B1: GRA3_(43-161), cleaved from GST (domain or fragment, Toxoplasma gondii, UniProt B6KEU8 43-161, looked up)
chain: ADQPENHQALAEPVTGVGEAGVSPVNEAGESYSSATSGVQEATAPGAVLLDAIDAESDKVDNQAEGGERMKKVEEELSLLRRELYDRTDRPGLKRAVILSLATSAAIGGRMVSRTLRDN
notes: amplified from parasite cDNA; Cloned at the BamHI site of pGEX6-P3; also called TgGRA3 recombinant protein; source: E. coli BL21, purified on glutathione-Sepharose, cleaved with PreScission protease; not shown: GST, N-terminal, cleaved
As a reminder, the stoichiometry N is the number of molecules, sites or subunits per partner or assembly. Regarding B1, in data set [1], the “stoichiometry N” value worked out at 2.

B2: GRA3_HA-Δ43-71 (domain or fragment, Toxoplasma gondii, UniProt B6KEU8 72-161, looked up)
chain: ESYSSATSGVQEATAPGAVLLDAIDAESDKVDNQAEGGERMKKVEEELSLLRRELYDRTDRPGLKRAVILSLATSAAIGGRMVSRTLRDN
notes: also called GST-HA-Δ43-71, after cleavage; source: E. coli BL21, captured on glutathione-Sepharose beads, cleaved with PreScission protease; not shown: GST, N-terminal, cleaved; HA, N-terminal, kept
Take B2: the binding result in data set [2] was “binds”.
